Laboratory results as given in paper PMC10816834, “Role of the C-Terminal β Sandwich of Thermoanaerobacter tengcongensis Thermophilic Esterase in Hydrolysis of Long-Chain Acyl Substrates” (International Journal of Molecular Sciences, 2024).
Values belong to the molecule of their own block, whether it stands above or below them.

Columns and labels:
Settings in all cases: 50 °C, 50 mM sodium phosphate pH 7.4 (also Tris-HCl pH 8.5), 5 μM enzyme, 1-20 mM substrate
[1] = test system: T1, EstA3_Bb (naturally shorter B. brevis esterase); test: p-nitrophenol release at […] nm, Lineweaver-Burk; format: biochemical, Brevibacillus brevis
T1 construct: gene EstA3.bb; full-length natural enzyme lacking the C-terminal tail, 6xHis-tag (pET28a, plasmid pFEM170), codon-optimised synthetic gene, E. coli BL21(DE3) pLysS, Ni-NTA; calculated mass 35,243

purified protein [2] = substrate: CCCC(=O)Oc1ccc([N+](=O)[O-])cc1; test: purified protein; format: biochemical, Caldanaerobacter subterraneus
purified protein [3] = substrate: CCCCCCCC(=O)Oc1ccc([N+](=O)[O-])cc1; test: purified protein; format: biochemical, Caldanaerobacter subterraneus

B1: EstA3_Tt (wild-type T. tengcongensis esterase EstA3, LipA3) (Caldanaerobacter subterraneus subsp. tengcongensis MB4) (protein)
chain: MNNPVVFLHGIFGSIFTPTPLGKIWSFGPAANIYAPFIEDLQKIGLVENKNLFVCYYEWWRKIPDAVDKLILAIEEAKAKTGSSKVDLVCHSMGGLLARSYLQSDKYQFDVDKLILLGTPNLGAANAYYGWEGGTVPPDDEDFVNMLFRGFLWIFSKIKGEKDAVTVIRKYIPSIKDLMPSKEYGSYLFMYPVRYEKILFKNIEYMKVINDFLNDLNEKADILYERVRSVYLFAGEGVYTNKFIQVEKSESEVVWPDGKPVGVIRDDKGDGTVLTKSALGINGEEIVLKSSHIGILKDSVSYLGEILGIREKPSISLLEKAISYLSIITDKKIVVLDRSKKIKTYDVFGKYNWHVCFEPEGVYKISIKEPGMSEFYIETNKKTVEKKFKSSRLSRGAEFTLEVDEEGNFKMRDG
notes: full length, 6xHis-tag (pET28a, plasmid pFEM45), codon-optimised synthetic gene, E. coli BL21(DE3) pLysS, Ni-NTA; calculated mass 47,078
Km (purified protein [2]): 530 µM | Km (purified protein [3]; listed as label shifted in table, assigned by text b31): 490 µM

B2: EstA3_TtΔ (truncated T. tengcongensis esterase) (Caldanaerobacter subterraneus subsp. tengcongensis MB4) (protein)
chain: MNNPVVFLHGIFGSIFTPTPLGKIWSFGPAANIYAPFIEDLQKIGLVENKNLFVCYYEWWRKIPDAVDKLILAIEEAKAKTGSSKVDLVCHSMGGLLARSYLQSDKYQFDVDKLILLGTPNLGAANAYYGWEGGTVPPDDEDFVNMLFRGFLWIFSKIKGEKDAVTVIRKYIPSIKDLMPSKEYGSYLFMYPVRYEKILFKNIEYMKVINDFLNDLNEKADILYERVRSVYLFAGEGVYTNKFIQVEKSESEVVWPDGKPVGVIRDDKGDGTVLTKSALGINGEEIVLKSSHIGILKDSVSYLGEILG
notes: catalytic domain; 6xHis-tag (pET28a, plasmid pFEM103), E. coli BL21(DE3) pLysS, Ni-NTA; calculated mass 34,719
Km (purified protein [2]): 640 µM | Km (purified protein [3]): 560 µM

Second part, the molecule after the results:

Km ([1]; table value, text b31 prints 0.53 mM): 590 µM
Molecule: CCCC(=O)Oc1ccc([N+](=O)[O-])cc1 [pNPC4, p-nitrophenyl butyrate]

Km [1]: 510 µM
Molecule: CCCCCCCC(=O)Oc1ccc([N+](=O)[O-])cc1 [pNPC8, p-nitrophenyl caprylate]
